Reference: publication PMC10201421

Target: CTD (nucleocapsid C-terminal RNA binding domain) (SARS-CoV-2, UniProt P0DTC9 247-364)
Assay: ITC

Work on GGUUCACCGAGGCCACGCGGAGUACGAUCGAGUGUACAGUGAACC (structured_RNA) [s2m-CoV-2] yielded a Kd of 600 ± 200 nM.
